Experimental data as given in IntAct's records for PubMed 20051244.

B1: Octaprenyl diphosphate synthase (Escherichia coli (strain K12)), P0AD57 (parent)
chain: MNLEKINELTAQDMAGVNAAILEQLNSDVQLINQLGYYIVSGGGKRIRPMIAVLAARAVGYEGNAHVTIAALIEFIHTATLLHDDVVDESDMRRGKATANAAFGNAASVLVGDFIYTRAFQMMTSLGSLKVLEVMSEAVNVIAEGEVLQLMNVNDPDITEENYMRVIYSKTARLFEAAAQCSGILAGCTPEEEKGLQDYGRYLGTAFQLIDDLLDYNADGEQLGKNVGDDLNEGKPTLPLLHAMHHGTPEQAQMIRTAIEQGNGRHLLEPVLEAMNACGSLEWTRQRAEEEADKAIAALQVLPDTPWREALIGLAHIAVQRDR
partner: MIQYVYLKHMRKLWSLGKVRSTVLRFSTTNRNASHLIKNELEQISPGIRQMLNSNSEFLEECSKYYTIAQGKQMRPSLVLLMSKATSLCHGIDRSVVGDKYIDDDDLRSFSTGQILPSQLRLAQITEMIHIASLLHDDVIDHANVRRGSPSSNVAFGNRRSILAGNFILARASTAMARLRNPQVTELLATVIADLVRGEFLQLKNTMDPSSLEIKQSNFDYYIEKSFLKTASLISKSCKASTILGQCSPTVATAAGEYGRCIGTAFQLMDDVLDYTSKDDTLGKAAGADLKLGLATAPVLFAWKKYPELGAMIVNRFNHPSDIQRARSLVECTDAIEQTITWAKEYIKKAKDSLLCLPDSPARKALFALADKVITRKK
B2: Octaprenyl diphosphate synthase (Escherichia coli (strain K12)), P0AD57 (parent)
chain: B1 chain
partner: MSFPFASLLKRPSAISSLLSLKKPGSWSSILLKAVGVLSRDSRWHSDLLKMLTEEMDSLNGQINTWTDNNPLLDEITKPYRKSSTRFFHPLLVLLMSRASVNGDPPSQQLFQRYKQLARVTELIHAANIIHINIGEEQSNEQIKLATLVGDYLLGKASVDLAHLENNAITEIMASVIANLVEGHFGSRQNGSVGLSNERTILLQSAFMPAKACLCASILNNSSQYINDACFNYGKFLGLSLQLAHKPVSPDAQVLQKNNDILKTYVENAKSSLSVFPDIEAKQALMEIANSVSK

Variants of: B1
Conditions: with dps1_schpo dps1, O43091

Row | Variant | effect of a mutation on the interaction
1 | R321A | increasing interaction

Variants of: B2
Conditions: with dlp1_schpo dlp1, O13851

Row | Variant | effect of a mutation on the interaction
2 | R321A | decreasing interaction
